Experimental data from PMC7145567.

Target: HMGA1a, non-phosphorylated (wt) (UniProt P17096 1-107)
Assay: ITC

Chain of HMGA1a, non-phosphorylated (wt) (P17096 whole entry): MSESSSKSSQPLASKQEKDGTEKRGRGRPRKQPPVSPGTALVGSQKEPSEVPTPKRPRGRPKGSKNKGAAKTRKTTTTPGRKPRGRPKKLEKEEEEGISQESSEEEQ

B1: PRD2 element of NFkB promoter (dsDNA)
DNA 1: GGGAAATTCCTC
DNA 2: GAGGAATTTCCC
Kd: ~100 nM
